We go through 4 molecules from publication PMC1450329.

What is called Kd is the constant that tells how readily two partners part at equilibrium. Lower therefore signals a tighter complex.

Holding throughout (assay): fluorescence anisotropy
For orientation: Fluorescence polarisation rises when a labelled molecule tumbles more slowly, as on binding a larger partner.

The target in series [1] is T1, MutS wild-type (Escherichia coli, UniProt P23909 1-853).
T1 sequence: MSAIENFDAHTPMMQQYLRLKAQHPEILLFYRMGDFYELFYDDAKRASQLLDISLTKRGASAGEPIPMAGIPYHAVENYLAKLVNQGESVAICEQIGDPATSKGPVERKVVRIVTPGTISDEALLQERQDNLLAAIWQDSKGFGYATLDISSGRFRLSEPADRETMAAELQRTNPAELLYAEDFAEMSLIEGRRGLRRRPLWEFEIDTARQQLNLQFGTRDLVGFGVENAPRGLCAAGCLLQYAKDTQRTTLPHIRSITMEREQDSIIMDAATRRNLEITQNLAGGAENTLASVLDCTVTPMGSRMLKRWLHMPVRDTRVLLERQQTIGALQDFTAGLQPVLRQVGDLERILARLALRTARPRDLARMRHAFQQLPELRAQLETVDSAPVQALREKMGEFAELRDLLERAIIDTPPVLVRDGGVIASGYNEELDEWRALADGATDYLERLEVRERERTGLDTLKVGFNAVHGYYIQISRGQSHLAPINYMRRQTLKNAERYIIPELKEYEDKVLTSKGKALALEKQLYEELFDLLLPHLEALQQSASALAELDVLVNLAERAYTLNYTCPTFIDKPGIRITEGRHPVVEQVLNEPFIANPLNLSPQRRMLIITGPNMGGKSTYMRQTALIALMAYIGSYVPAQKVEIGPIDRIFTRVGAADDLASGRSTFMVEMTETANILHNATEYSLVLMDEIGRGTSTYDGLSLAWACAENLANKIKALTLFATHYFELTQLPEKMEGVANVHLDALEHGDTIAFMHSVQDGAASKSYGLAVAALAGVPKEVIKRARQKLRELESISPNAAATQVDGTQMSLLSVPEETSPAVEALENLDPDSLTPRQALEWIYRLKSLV

The target of another series is T2, MutS-E38A (Escherichia coli, UniProt P23909 1-853, E38A).
T2 sequence: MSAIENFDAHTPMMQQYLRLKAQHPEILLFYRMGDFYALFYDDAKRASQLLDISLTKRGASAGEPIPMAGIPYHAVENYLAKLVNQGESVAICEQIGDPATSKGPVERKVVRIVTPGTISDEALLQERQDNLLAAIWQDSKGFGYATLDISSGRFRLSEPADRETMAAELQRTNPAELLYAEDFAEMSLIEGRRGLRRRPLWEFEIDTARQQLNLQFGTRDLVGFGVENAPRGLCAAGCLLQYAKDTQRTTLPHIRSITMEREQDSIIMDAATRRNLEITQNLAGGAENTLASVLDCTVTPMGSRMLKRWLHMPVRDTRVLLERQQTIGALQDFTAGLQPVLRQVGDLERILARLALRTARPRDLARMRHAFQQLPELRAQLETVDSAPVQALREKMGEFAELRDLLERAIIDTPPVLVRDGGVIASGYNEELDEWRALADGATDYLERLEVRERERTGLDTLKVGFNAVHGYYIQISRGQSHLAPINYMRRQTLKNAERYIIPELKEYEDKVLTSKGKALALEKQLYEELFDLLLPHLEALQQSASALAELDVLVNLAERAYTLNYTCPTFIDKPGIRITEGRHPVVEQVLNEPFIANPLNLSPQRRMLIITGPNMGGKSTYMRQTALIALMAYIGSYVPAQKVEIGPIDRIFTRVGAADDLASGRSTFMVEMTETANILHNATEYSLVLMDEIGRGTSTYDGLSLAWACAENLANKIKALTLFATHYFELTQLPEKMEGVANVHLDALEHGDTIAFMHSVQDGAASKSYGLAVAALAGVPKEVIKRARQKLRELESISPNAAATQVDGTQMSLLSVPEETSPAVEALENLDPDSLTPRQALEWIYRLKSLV

Series [2] has as its target T1, MutS wild-type. This is another data set of the same source.

Read-outs that look alike come from different tables or passages of the source.

B1: G/T mismatch heteroduplex 30mer (dsDNA)
DNA 1: ACCTGTCTGGCAACACTGTCACCGTCGTAT
DNA 2: ATACGACGGTGACAGTGTTGCTAGACAGGT
In the case of B1, the Kd is 100 ± 8 nM with MutS wild-type [1] and 160 ± 58 nM with MutS-E38A.

B2: CP-GpG/CC cisplatinated homoduplex 30mer (dsDNA)
DNA 1: ACCTGTCTGGCAACACTGTCACCGTCGTAT
DNA 2: ATACGACGGTGACAGTGTTGCCAGACAGGT
modifications: cisplatin 1,2-GpG intrastrand cross-link at G9-G10 of strand 1
On to B2, for which the Kd with MutS wild-type [1] turned out to be 1300 ± 65 nM; with MutS-E38A, 600 ± 78 nM; with MutS wild-type [2], 1340 ± 580 nM.

B3: CP-GpG/CT cisplatinated mismatch 30mer (dsDNA)
DNA 1: ACCTGTCTGGCAACACTGTCACCGTCGTAT
DNA 2: ATACGACGGTGACAGTGTTGCTAGACAGGT
modifications: cisplatin 1,2-GpG intrastrand cross-link at G9-G10 of strand 1
As to B3, the Kd is 360 ± 46 nM in the series with MutS wild-type [1] and 200 ± 69 nM in the series with MutS-E38A.

B4: G/C homoduplex 30mer (dsDNA)
DNA 1: ACCTGTCTGGCAACACTGTCACCGTCGTAT
DNA 2: ATACGACGGTGACAGTGTTGCCAGACAGGT
For the molecule B4, the results for the Kd with MutS-E38A and in the series with MutS wild-type [2] were 610 ± 58 nM and 1080 ± 720 nM, respectively.
